Assay [1] has as its target T1, SARS-CoV-2 Omicron RBD (ACROBiosystems, cat. no. SPD-C522e) (SARS-CoV-2, Omicron B.1.1.529 (BA.1), G339D | S371L | S373P | S375F | K417N | N440K | G446S | S477N | T478K | E484A | …).
T1 construct: source: bought: ACROBiosystems
Briefly: BLI. To be noted: both partners purified.

For assay [2], the target named is prefusion-stabilized SARS-CoV-2 Omicron (B.1.1.529) S trimer (SARS-CoV-2, Omicron B.1.1.529 (BA.1), A67V | Δ69–70 | T95I | G142D | Δ143–145 | Δ211 | L212I | ins214EPE | G339D | …). The experiment in a line: cryo-EM structure. The following applies: both partners purified.
The target of assay [3] is SARS-CoV-2 wild-type spike (S) protein (SARS-CoV-2, WT (MN908947), UniProt P0DTC2). Briefly: cell-based or functional assay.

Where “and” joins values, the source holds several entries; their conditions need not be identical. Equal values may be shown once.

The stoichiometry N is a count of units in the complex or per binding partner.

B1: XGv282 monoclonal antibody (antibody, V domains shown)
VH: QVQLVQSGAEVKKPGSSVKVSCKASGDTFSSYTFSWVRQAPGQGLEWMGRSIPIVGKAIYAQEFQGRVTISADRSTTTVYMELSSLRSDDTAVYYCARDQSGFDFFYYDHWGQGTLVAVSS
VL: QSVLTQPPSASGTPGQRVTISCSGSGSNIGSNTINWYQQLPGTAPKVLIYRNNERPSGVPDRFSGSKSGTSASLTISGLQSEDEAYYHCAAWDDSLNGPVFGGGTKLTVL
notes: IgG1; copies: 2 + 2
B1: the “fold reduction in binding affinity against WT S” value in assay [1] turned out to be 5 fold.

B2: XGv282 Fab fragment (Fab, V domains shown)
VH: B1 VH
VL: B1 VL
Consider B2, for which the “stoichiometry N” value in assay [2] was 3 Fabs per S trimer.

B3: XGv282 (antibody, V domains shown)
VH: B1 VH
VL: B1 VL
For the molecule B3, in assay [3], the “authentic virus IC50(μg/ml), Wild-type” value was found to be 0.00102 µg/mL and the “pseudovirus IC50(μg/ml), Wild-type” value was determined as 0.007 µg/mL.

B4: XGv347 monoclonal antibody (antibody, V domains shown)
VH: QMQLVQSGPEVKKPGTSVKVSCKASGFTFTDVSSLQWVRQARGQRLEWIGWTVVGTGNTNYAPRFQERVTITTDKSTSTAYMELSSLRSEDTAVYYCAAPFCSETSCSDGFDLWGQGTKVTVSS
VL: EIVLTQSPGTLSLSPGDRATLSCRASQSVRISYLAWYQQKPGQAPRLLISGSSSRATGIPDRFSASGSGTDFALTISRLEPEDFAVYYCQQYDNSPWTFGQGTKVEVK
notes: copies: 2 + 2
For the molecule B4, the “fold decrease in binding against WT S” value in assay [1] was determined as 40 fold.

B5: XGv347 (antibody, V domains shown)
VH: B4 VH
VL: B4 VL
Take B5: in assay [3], the “authentic virus IC50(μg/ml), Wild-type” value was determined as 0.0061 µg/mL and the “pseudovirus IC50(μg/ml), Wild-type” value was determined as 0.0685 µg/mL.

B6: XGv347 Fab fragment (Fab, V domains shown)
VH: QMQLVQSGPEVKKPGTSVKVSCKASGFTFTDVSSLQWVRQARGQRLEWIGWTVVGTGNTNYAPRFQERVTITTDKSTSTAYMELSSLRSEDTAVYYCAAPFCSETSCSDGFDLWGQGTKVTVS
VL: EIVLTQSPGTLSLSPGDRATLSCRASQSVRISYLAWYQQKPGQAPRLLISGSSSRATGIPDRFSASGSGTDFTLTISRLEPEDFAVYYCQQYANSPWTFGQGTKVEV
On to B6, for which the “stoichiometry N” value in assay [2] was 3 Fabs per S trimer and 2 Fabs per S trimer.

B7: XGv265 Fab fragment (Fab, V domains shown)
VH: QITLKESGPTLVKPTQTLTLTCNFSGFSLNTYGVGVGWIRQPPGKALEWLALIYWDGDERYGPFFKNKVTIAKDTSKNQVVLTMTNMDPVDTATYYCARHLIPTIFDYWGQGTLVTVSS
VL: QSALTQPASVSGSPGQSITISCTGTSSDVGGSNYVSWYQHHPDRAPKLLIYEVTNRPSGVSNRFSGSKSANTASLTISGLQAEDEADYYCSSYTTTSTHILFGGGTKLTV
Turning to B7, the “stoichiometry N” value in assay [2] turned out to be 2 Fabs per S trimer.

B8: XGv265 (antibody, V domains shown)
VH: B7 VH
VL: B7 VL
Consider B8, for which, in assay [3], the “authentic virus IC50(μg/ml), Wild-type” value stood at 0.0122 µg/mL and the “pseudovirus IC50(μg/ml), Wild-type” value stood at 0.0105 µg/mL.

B9: XGv289 Fab fragment (Fab, V domains shown)
VH: QVQLVQSGAEVKKPGASLKVSCRASGYTFTSHFIHWVRQAPGQGLEWMGIINPSGGASYAQNFRDRVTMTTDPSTSTVYMELGSLRSEDTAVYYCARAEGSSWLGWFDPWGQGTLVTVSS
VL: QSVLTQPPSASGTPGQRVTIPCSGSSSNIGNNYVYWYQQLPGTAPKLLVYGNNQRPSGVPDRFSVSKSGTSASLAISGLRSEDEADYYCAAWDDGLSGSGWVFGGGTKLTVL
Regarding B9, the “stoichiometry N” value in assay [2] amounted to 3 Fabs per S trimer.

B10: XGv289 (antibody, V domains shown)
VH: B9 VH
VL: B9 VL
Consider B10, for which, in assay [3], the “authentic virus IC50(μg/ml), Wild-type” value was determined as 0.0061 µg/mL and the “pseudovirus IC50(μg/ml), Wild-type” value turned out to be 0.00928 µg/mL.

These data come from article PMC8967717 (Nature, 2022).
